The results in this text go back to US9090994B2.

The target of assay [1] is c-Myc-containing recombinant protein. Description: SPR; fold change of KD, WT is itself the reference.
Assay [2] has the same target. Kind of assay: SPR (Biacore T200), c-Myc-containing recombinant protein immobilised, soluble Fab injected at 5-80 nM, 1:1 Langmuir fit. (In general: SPR reads the build-up and loss of mass on a sensor chip optically.)

B1: parental murine Fab of aM (murine monoclonal antibody raised against c-Myc peptide) (Fab, V domains shown)
VH: QIQLVQSGPELKKPGETVRISCKASGYTFTTAGMQWVQKMPGKGLKWIGWINTHSGVPKYAEDFKGRFAFSLETSASTAYLQMTNLNNEDTATYFCARGYGKGGYFAMDYWGQGTSVTVSS
VL: DVVMTQIPFSLPVSLGDQASISCRSSQSLVHSNGNTYLHWYVQKPGQSPKLLIYKVSNRFSGVPDRFSGSGSGTYFTLKISRVEAEDLGVYFCSQSTRVPWTFGGGTKLEIK
For the molecule B1, in assay [1], the Fold change stood at 1 fold. Further, in assay [2], the Kd came to 110 nM, the off-rate constant (koff) came to 0.018 s⁻¹ and the kon is 160000 M⁻¹ s⁻¹.

What is called Kd is the constant that tells how readily two partners part at equilibrium. By koff is commonly meant the rate constant with which the complex falls apart. The term kon denotes a measure of how fast the partners come together.
